In article PMC5376981 (Scientific Reports, 2014):
Positions count from the first letter of the chain named.

B1: VHH889 (VHH)
VHH: QVQLQESGGGLVQAGGSLRLSCAASGRSFSSYAMGWFRQAPGKEREFVATITWSGGSTYYADSVKGRFTISGDSAENTVYLQMNSLKPEDTAVYYCAADETSAPLYRAYEAQYDYWGQGTQVTVSS
B2: VHH893 (VHH)
VHH: QVQLQESGGGLVQAGGSLRLSCAASGFTFDDYAIGWFRQAPGKEREGVSCISSGDGGTYYADSVKGRFTISSDNAENTVALQMNSLKPEDTAVYYCAAVYGSCWDGLLYRTDSYEYDGWGQGTQVTVSS
B3: VHH871 (VHH)
VHH: QVQLQESGGGLVQAGGSLRLSCAASGSIFSIHAMGWYRQAPGKQRELVAAITSGGSTNYGDSVKGRFTISEDNAKNTVYLQMNGLKPEDTAVYYCAADNDGLGYVYWGQGTQVTVSS
B4: VHH867 (VHH)
VHH: QVQLQESGGGLVQAGGSLRLSCAASGFTLDDYGIGWFRQAPGKEREGVSFISSSDGTTDYADSVKGRFTISSDNAKNTVYLQMNSLKPEDTAVYYCAAVEQRVPFLSVLHEAIYDYWGQGTQVTVSS
B5: VHH895 (VHH)
VHH: QVQLQESGGGLVQAGGSLRVSCAASGRALSDYAMGWFRQTPGKEREFVAAISWNGGNTYYADSVKGRFTISRDNAENTVYLQMNSLKPEDTAVYYCAANDLAVPGLLMPRVETYDYWGQGTQVTVSS
B6: VHH884 (VHH)
VHH: B5 VHH with V20L, A28T, L29F, D31N, T40A, N57S, V64A, Y95R, A102M, G105E
B7: VHH860 (VHH)
VHH: B5 VHH with V20L, L29F, T40A, E46D, A61S, G105E
B8: VHH874 (VHH)
VHH: B5 VHH with V20L, L29F, T40A, E46D, A61S, E76K, G105E
B9: VHH905 (VHH)
VHH: B5 VHH with V20L, A28T, L29F, D31S, T40A, N57S, V79G, A102M, G105E
B10: VHH897 (VHH)
VHH: B5 VHH with V20I, A28T, L29F, T40A, G56D, E76K
B11: VHH859 (VHH)
VHH: QVQLQESGGGLVQAGGSLRLSCAASGRTFSSYAMGWFRQAPGKEREFVAAISWNGSSTYYADSVKGRFTISRDNAKNTVYLQMNSLKPEDTAVYYCAANDLLVPELLMSRVEVYDYWGQGTQVTVSS
B12: VHH883 (VHH)
VHH: B11 VHH with N54S, S56D, S57T, Y80S, L102M, E105A, S109P, V111L, V113S
B13: VHH879 (VHH)
VHH: B11 VHH with S31D, E44D, N54S, S56D, S57R, Y95H, L102M, S109P, V113S
B14: VHH880 (VHH)
VHH: B11 VHH with S31D, E44D, N54S, S56D, S57R, K76E, Y95H, L102M, S109P, V113S
B15: VHH891 (VHH)
VHH: QVQLQESGGGLVQTGDSLRLSCAASGRTFSSYAMGWFRQAPGKEREFVAAITWGDGSADYADSVKGRFTISRDNAENTVYLQMNSLKPEDTAVYYCAAETVGAPIYTLGYSEAYDYWGQGTQVTVSS
B16: VHH863 (VHH)
VHH: QVQLQESGGGLVQTGGSLRLSCAASGRTFMDYVMGWFRQAPGKEREFVASISWTDSTRYTDSVKGRFTASRDDAEATVYLQMNNLQFEDTAVYYCARGAGRGHSVSAGDYVYWGQGTQVTVSS
B17: VHH864 (VHH)
VHH: B16 VHH with E75K

Legend:
3D7-DBL2X = 3D7-DBL2X (Plasmodium falciparum 3D7, UniProt Q8I639, strain); experiment: ELISA
FCR3-DBL3X = FCR3-DBL3X (Plasmodium falciparum FCR3, UniProt Q6UDW7, strain); experiment: ELISA
[1] = target: full-length VAR2CSA recombinant protein (3D7-DBL1X-6ε) (Plasmodium falciparum 3D7, UniProt Q8I639, strain); experiment: SPR
[2] = target: native VAR2CSA on FCR3-CSA infected erythrocytes (Plasmodium falciparum FCR3, UniProt Q6UDW7, strain); experiment: flow cytometry on cells
3D7-DBL1X-3X = 3D7-DBL1X-3X (Plasmodium falciparum 3D7, UniProt Q8I639, strain); experiment: ELISA
3D7-DBL1X = 3D7-DBL1X (Plasmodium falciparum 3D7, UniProt Q8I639, strain); experiment: ELISA
[3] = target: native VAR2CSA on NF54-CSA infected erythrocytes (Plasmodium falciparum NF54 (parent of …, UniProt Q8I639, strain)); experiment: flow cytometry on cells
FCR3-DBL6ε = FCR3-DBL6ε (Plasmodium falciparum FCR3, UniProt Q6UDW7, strain); experiment: ELISA

Row | Binder | binding result (3D7-DBL2X) | binding result (FCR3-DBL3X) | Kd [1] | koff [1] | kon [1] | binding result [2] | binding result (3D7-DBL1X-3X) | binding result (3D7-DBL1X) | binding result [3] | binding result (FCR3-DBL6ε)
1 | B1 | no binding (tested: 0.3 µg/ml) | no binding (tested: 0.3 µg/ml) | 700 nM | 0.035 s⁻¹ | 54000 M⁻¹ s⁻¹ | binds | – | – | – | –
2 | B2 | – | – | 27 nM | 0.0017 s⁻¹ | 60000 M⁻¹ s⁻¹ | no binding (tested: 100 µg/ml) | – | – | – | –
3 | B3 | no binding (tested: 0.3 µg/ml) | no binding (tested: 0.3 µg/ml) | 200 nM | 3.9e-05 s⁻¹ | 216 M⁻¹ s⁻¹ | binds | – | – | – | –
4 | B4 | no binding (tested: 0.3 µg/ml) | no binding (tested: 0.3 µg/ml) | 300 nM | 0.0027 s⁻¹ | 8690 M⁻¹ s⁻¹ | binds | – | – | – | –
5 | B5 | – | – | 800 nM | 87.2 s⁻¹ | 1.1e+08 M⁻¹ s⁻¹ | binds | – | – | – | –
6 | B6 | no binding (tested: 0.3 µg/ml) | no binding (tested: 0.3 µg/ml) | 400 nM | 0.0036 s⁻¹ | 9860 M⁻¹ s⁻¹ | binds | – | – | – | –
7 | B7 | no binding (tested: 0.3 µg/ml) | no binding (tested: 0.3 µg/ml) | 28 nM | 0.0013 s⁻¹ | 46000 M⁻¹ s⁻¹ | binds | – | – | – | –
8 | B8 | no binding (tested: 0.3 µg/ml) | no binding (tested: 0.3 µg/ml) | – | – | – | binds | binds | binds | binds | –
9 | B9 | – | – | – | – | – | binds | binds | binds | binds | –
10 | B10 | – | – | 43 nM | 0.0013 s⁻¹ | 31000 M⁻¹ s⁻¹ | binds | – | – | – | –
11 | B11 | no binding (tested: 0.3 µg/ml) | no binding (tested: 0.3 µg/ml) | 300 nM | 0.0032 s⁻¹ | 12000 M⁻¹ s⁻¹ | binds | – | – | – | –
12 | B12 | no binding (tested: 0.3 µg/ml) | no binding (tested: 0.3 µg/ml) | 10 nM | 0.0017 s⁻¹ | 170000 M⁻¹ s⁻¹ | binds | – | – | – | –
13 | B13 | no binding (tested: 0.3 µg/ml) | no binding (tested: 0.3 µg/ml) | 19 nM | 0.0015 s⁻¹ | 79000 M⁻¹ s⁻¹ | binds | – | – | – | –
14 | B14 | no binding (tested: 0.3 µg/ml) | no binding (tested: 0.3 µg/ml) | 100 nM | 0.0018 s⁻¹ | 15000 M⁻¹ s⁻¹ | binds | – | – | – | –
15 | B15 | no binding (tested: 0.3 µg/ml) | no binding (tested: 0.3 µg/ml) | 700 nM | 0.0014 s⁻¹ | 2050 M⁻¹ s⁻¹ | binds | – | – | – | –
16 | B16 | – | – | 46 nM | 0.0014 s⁻¹ | 31000 M⁻¹ s⁻¹ | no binding (tested: 100 µg/ml) | – | – | – | no binding (tested: 0.3 µg/ml)
17 | B17 | – | – | 18 nM | 0.00063 s⁻¹ | 34000 M⁻¹ s⁻¹ | no binding (tested: 100 µg/ml) | – | – | – | no binding (tested: 0.3 µg/ml)
